Biological target: the molecule itself
Experiment: cryo-EM structure

Row | Protein | stoichiometry N
1 | Sf6 portal protein (gp3) (natural protein, bacteriophage Sf6, UniProt Q716H2 1-708, looked up) MAETLEKKHERIMLRFDRAYSPQKEVREKCIEATRFARVPGGQWEGATAAGTKLDEQFEKYPKFEINKVATELNRIIAEYRNNRITVKFRPGDREASEELANKLNGLFRADYEETDGGEACDNAFDDAATGGFGCFRLTSMLVNEYDPMDDRQRIAIEPIYDPSRSVWFDPDAKKYDKSDALWAFCMYSLSPEKYEAEYGKKPPTSLDVTSMTSWEYNWFGADVIYIAKYYEVRKESVDVISYRHPITGEIATYDSDQVEDIEDELAIAGFHEVARRSVKRRRVYVSVVDGDGFLEKPRRIPGEHIPLIPVYGKRWFIDDIERVEGHIAKAMDPQRLYNLQVSMLADTAAQDPGQIPIVGMEQIRGLEKHWEARNKKRPAFLPLREVRDKSGNIIAGATPAGYTQPAVMNQALAALLQQTSADIQEVTGGSQAMQQMPSNIAQETVNNLMNRADMASFIYLDNMAKSLKRAGEVWLSMAREVYGSEREVRIVNEDGSDDIAVLSAQVVDRQTGAVVALNDLSVGRYDVTVDVGPSYTARRDATVSVLTNVLSSMLPTDPMRPAIQGIILDNIDGEGLDDFKEYNRNQLLISGIAKPRNEKEQQIVQQAQMAAQSQPNPEMVLAQAQMVAAQAEAQKATNETAQTQIKAFTAQQDAMESQANTVYKLAQARNIDDKAVMEAIRLLKDVAESQQQQFQSPPQSPADLMPS | 12
2 | Sf6 tail plug protein gp8 (natural protein, bacteriophage Sf6, UniProt Q716G7 1-472, looked up) MPIQQLPLMKGVGKDFRNADYIDYLPVNMLATPKEILNSSGYLRSFPGIAKRSDVNGVSRGVEYNMAQNAVYRVCGGKLYKGESEVGDVAGSGRVSMAHGRTSQAVGVNGQLVEYRYDGTVKTVSNWPTDSGFTQYELGSVRDITRLRGRYAWSKDGTDSWFITDLEDESHPDRYSAQYRAESQPDGIIGIGTWRDFIVCFGSSTIEYFSLTGATTAGAALYVAQPSLMVQKGIAGTYCKTPFADSYAFISNPATGAPSVYIIGSGQVSPIASASIEKILRSYTADELADGVMESLRFDAHELLIIHLPRHVLVYDASSSANGPQWCVLKTGLYDDVYRAIDFIYEGNQITCGDKLESVTGKLQFDISSQYGLQQEHLLFTPLFKADNARCFDLEVESSTGVAQYADRLFLSATTDGINYGREQMIEQNEPFVYDKRVLWKRVGRIRKNVGFKLRVITKSPVTLSGAQIRIE | 6
3 | Sf6 tail needle (gp9) (natural protein, bacteriophage Sf6, UniProt Q716G6 1-282, looked up) MADSNLNVPVIIQATRLDTSVLPRNIFSQSYLLYVIAQGTDVGNVANKANEAGQGAYDAQVRNDEQDVILADHEQRISAAEATLVNHEERIRQAESTLQDHETRIAQNESDISSLDTRVQSLESQVSDHETRIDALEYATTRKKSEVVYSGVSVTIPTAPTNLVSLLKTLTPSSGTLAPFFDTVNNKMVVFNENKTLFFKLSIVGTWPSGTANRSMQLTFSGSVPDTLVSSRNSATTTDNILLATFFSVDKDGFLATNGSTLTIQSNGASFTATTIKIIAEQ | 3
4 | Sf6 tail plug protein gp7 (natural protein, bacteriophage Sf6, UniProt Q716G8 1-160, looked up) MATVLTKGEIVLFALRKFAIASNASLTDVEPQSIEDGVNDLEDMMSEWMINPGDIGYAFATGDEQPLPDDESGLPRKYKHAVGYQLLLRMLSDYSLEPTPQVLSNAQRSYDALMTDTLVVPSMRRRGDFPVGQGNKYDVFTSDRYYPGDLPLIDGDIPNA | 12

From paper PMC3320033 (Virology, 2012)
